Patent US20130004429A1
Ends that are not written are not given here. * marks the point of attachment. Biotin = O=C1N[C@H]2[C@H](CS[C@H]2CCCCC(=O)*)N1

Target: tubulin (rat)
Test: cell-based or functional assay

- cells with altered microtubule network (immunocytochemistry), 9L rat glioma cells: 76.7%
- cells with altered microtubule network (immunocytochemistry), F98 rat glioma cells: 82%
- cells with altered microtubule network (immunocytochemistry), rat neurons: 8.5%
- cells with altered microtubule network (immunocytochemistry), rat primary astrocytes: 4.7%
Binder: Biotin-YSSYSAPVSSSLSVRRSYSSSSGS [NFL-TBS40-63 peptide, biotinylated]
